# According to patent publication US20180155451A1 (published 2018):
# B1: GpH7-B3 variant S239_19Q/GpL16-k0 (antibody, human IgG1, kappa)
# heavy: not shown
# light: DIVMTQSPLSLPVTPGEPASISCQASESLVHSNRNTYLHWYLQKPGQSPQLLIYKVSNRFSGVPDRFSGSGSGTDFTLKISRVEAEDVGVYYCSQNTHVPPTFGQGTKVEIERTVAAPSVFIFPPSDEQLKSGTASVVCLLNNFYPREAKVQWKVDNALQSGNSQESVTEQDSKDSTYSLSSTLTLSKADYEKHKVYACEVTHQGLSSPVTKSFNRGEC
# notes: mutation in both H chains; also called Ho Ab S239_19Q; S239Q
# B2: GpH7-B3 variant S337_12R/GpL16-k0 (antibody, human IgG1, kappa)
# heavy: not shown
# light: B1 light
# notes: mutation in both H chains; also called Ho Ab S337_12R; S337R
# B3: GpH7-B3 variant T335_04F/GpL16-k0 (antibody, human IgG1, kappa)
# heavy: not shown
# light: B1 light
# notes: mutation in both H chains; also called Ho Ab T335_04F; T335F
# B4: GpH7-B3 variant S324_19Q/GpL16-k0 (antibody, human IgG1, kappa)
# heavy: not shown
# light: B1 light
# notes: mutation in both H chains; also called Ho Ab S324_19Q; S324Q
# B5: GpH7-B3 variant S239_18N/GpL16-k0 (antibody, human IgG1, kappa)
# heavy: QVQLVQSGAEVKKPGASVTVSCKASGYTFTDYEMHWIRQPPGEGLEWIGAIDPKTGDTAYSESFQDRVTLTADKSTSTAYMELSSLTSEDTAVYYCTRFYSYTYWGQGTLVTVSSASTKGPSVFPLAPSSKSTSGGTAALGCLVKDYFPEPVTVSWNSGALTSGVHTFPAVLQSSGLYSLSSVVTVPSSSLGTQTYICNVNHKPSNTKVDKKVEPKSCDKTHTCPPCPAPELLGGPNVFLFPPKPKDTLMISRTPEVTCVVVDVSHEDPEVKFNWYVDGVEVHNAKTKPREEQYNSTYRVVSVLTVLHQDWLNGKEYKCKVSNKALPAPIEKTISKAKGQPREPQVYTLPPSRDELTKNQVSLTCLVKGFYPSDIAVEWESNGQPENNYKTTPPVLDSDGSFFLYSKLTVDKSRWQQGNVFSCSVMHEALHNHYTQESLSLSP
# light: B1 light
# notes: mutation in both H chains; also called Ho Ab S239_18N; S239N
# B6: GpH7-B3 variant S337_02A/GpL16-k0 (antibody, human IgG1, kappa)
# heavy: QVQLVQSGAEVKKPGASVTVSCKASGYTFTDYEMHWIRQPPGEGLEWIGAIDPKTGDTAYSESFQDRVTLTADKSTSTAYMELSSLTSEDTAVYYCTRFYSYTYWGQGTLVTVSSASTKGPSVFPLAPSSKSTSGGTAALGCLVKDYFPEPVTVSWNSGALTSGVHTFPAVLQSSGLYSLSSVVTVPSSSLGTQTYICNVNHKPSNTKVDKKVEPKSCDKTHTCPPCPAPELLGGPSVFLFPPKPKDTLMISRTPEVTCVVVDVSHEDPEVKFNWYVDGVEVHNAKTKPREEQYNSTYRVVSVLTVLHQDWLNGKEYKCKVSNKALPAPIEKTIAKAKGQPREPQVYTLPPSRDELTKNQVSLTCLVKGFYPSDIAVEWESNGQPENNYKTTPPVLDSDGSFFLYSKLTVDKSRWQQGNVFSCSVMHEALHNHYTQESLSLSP
# light: B1 light
# notes: mutation in both H chains; also called Ho Ab S337_02A; S337A
# B7: GpH7-B3 variant T335_06M/GpL16-k0 (antibody, human IgG1, kappa)
# heavy: not shown
# light: B1 light
# notes: mutation in both H chains; also called Ho Ab T335_06M; T335M
# B8: GpH7-B3 variant S267_09D/GpL16-k0 (antibody, human IgG1, kappa)
# heavy: not shown
# light: B1 light
# notes: mutation in both H chains; also called Ho Ab S267_09D; S267D
# B9: GpH7-B3 variant S298_07I/GpL16-k0 (antibody, human IgG1, kappa)
# heavy: not shown
# light: B1 light
# notes: mutation in both H chains; also called Ho Ab S298_07I; S298I
# B10: GpH7-B3 variant S337_10E/GpL16-k0 (antibody, human IgG1, kappa)
# heavy: not shown
# light: B1 light
# notes: mutation in both H chains; also called Ho Ab S337_10E; S337E
# B11: GpH7-B3 variant S337_06M/GpL16-k0 (antibody, human IgG1, kappa)
# heavy: not shown
# light: B1 light
# notes: mutation in both H chains; also called Ho Ab S337_06M; S337M
# B12: GpH7-B3 variant S298_10E/GpL16-k0 (antibody, human IgG1, kappa)
# heavy: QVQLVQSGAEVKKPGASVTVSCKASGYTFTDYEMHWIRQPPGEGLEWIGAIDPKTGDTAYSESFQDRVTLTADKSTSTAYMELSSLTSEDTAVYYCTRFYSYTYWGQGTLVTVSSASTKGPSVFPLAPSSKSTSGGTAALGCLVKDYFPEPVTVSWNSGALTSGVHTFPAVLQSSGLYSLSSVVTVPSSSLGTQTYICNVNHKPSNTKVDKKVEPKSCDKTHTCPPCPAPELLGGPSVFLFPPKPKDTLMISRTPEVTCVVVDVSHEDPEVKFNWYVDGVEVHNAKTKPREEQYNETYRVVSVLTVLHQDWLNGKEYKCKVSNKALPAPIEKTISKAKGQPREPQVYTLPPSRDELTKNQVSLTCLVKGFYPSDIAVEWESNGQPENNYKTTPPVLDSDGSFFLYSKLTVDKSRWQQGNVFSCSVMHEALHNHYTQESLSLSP
# light: B1 light
# notes: mutation in both H chains; also called Ho Ab S298_10E; S298E
# B13: GpH7-B3 variant S337_15Y/GpL16-k0 (antibody, human IgG1, kappa)
# heavy: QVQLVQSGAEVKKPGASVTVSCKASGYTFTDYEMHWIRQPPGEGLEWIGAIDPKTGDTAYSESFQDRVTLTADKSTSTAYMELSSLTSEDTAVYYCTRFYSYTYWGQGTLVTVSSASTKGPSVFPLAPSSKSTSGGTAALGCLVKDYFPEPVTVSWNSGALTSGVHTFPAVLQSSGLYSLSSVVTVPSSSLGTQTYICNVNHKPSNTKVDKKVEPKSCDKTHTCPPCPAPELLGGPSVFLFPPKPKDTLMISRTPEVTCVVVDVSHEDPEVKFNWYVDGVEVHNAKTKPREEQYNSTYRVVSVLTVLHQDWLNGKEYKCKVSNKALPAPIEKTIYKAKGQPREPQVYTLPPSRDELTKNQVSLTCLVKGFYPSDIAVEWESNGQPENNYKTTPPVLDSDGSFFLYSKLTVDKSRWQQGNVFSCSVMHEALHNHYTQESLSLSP
# light: B1 light
# notes: mutation in both H chains; also called Ho Ab S337_15Y; S337Y
# B14: GpH7-B3 variant S298_08L/GpL16-k0 (antibody, human IgG1, kappa)
# heavy: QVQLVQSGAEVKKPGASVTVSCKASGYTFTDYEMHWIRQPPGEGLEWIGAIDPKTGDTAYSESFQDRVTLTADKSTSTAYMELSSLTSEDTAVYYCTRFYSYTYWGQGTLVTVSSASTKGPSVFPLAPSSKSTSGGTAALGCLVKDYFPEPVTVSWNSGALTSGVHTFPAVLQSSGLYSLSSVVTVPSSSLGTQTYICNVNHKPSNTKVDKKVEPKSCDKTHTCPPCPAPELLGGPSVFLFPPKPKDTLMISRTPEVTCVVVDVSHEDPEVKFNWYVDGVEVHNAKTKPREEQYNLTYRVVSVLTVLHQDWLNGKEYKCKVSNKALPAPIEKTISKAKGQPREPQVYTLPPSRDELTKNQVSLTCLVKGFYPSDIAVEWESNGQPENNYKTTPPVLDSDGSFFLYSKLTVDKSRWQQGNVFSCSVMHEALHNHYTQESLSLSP
# light: B1 light
# notes: mutation in both H chains; also called Ho Ab S298_08L; S298L
# B15: GpH7-B3 variant S324_18N/GpL16-k0 (antibody, human IgG1, kappa)
# heavy: not shown
# light: B1 light
# notes: mutation in both H chains; also called Ho Ab S324_18N; S324N
# B16: GpH7-B3 variant S298_06M/GpL16-k0 (antibody, human IgG1, kappa)
# heavy: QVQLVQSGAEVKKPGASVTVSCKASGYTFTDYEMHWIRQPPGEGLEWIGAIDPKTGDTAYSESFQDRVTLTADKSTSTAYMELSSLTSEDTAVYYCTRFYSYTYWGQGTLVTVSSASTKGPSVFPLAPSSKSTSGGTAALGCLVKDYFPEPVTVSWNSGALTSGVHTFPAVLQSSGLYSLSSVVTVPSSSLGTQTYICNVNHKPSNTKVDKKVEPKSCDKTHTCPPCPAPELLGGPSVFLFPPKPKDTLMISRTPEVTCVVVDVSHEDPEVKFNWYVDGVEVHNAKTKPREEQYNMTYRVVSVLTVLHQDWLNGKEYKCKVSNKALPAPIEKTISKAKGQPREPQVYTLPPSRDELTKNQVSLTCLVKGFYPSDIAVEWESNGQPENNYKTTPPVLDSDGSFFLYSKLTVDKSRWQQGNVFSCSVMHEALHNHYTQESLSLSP
# light: B1 light
# notes: mutation in both H chains; also called Ho Ab S298_06M; S298M
# B17: GpH7-B3 variant S267_02A/GpL16-k0 (antibody, human IgG1, kappa)
# heavy: not shown
# light: B1 light
# notes: mutation in both H chains; also called Ho Ab S267_02A; S267A
# B18: GpH7-B3 variant S324_03V/GpL16-k0 (antibody, human IgG1, kappa)
# heavy: not shown
# light: B1 light
# notes: mutation in both H chains; also called Ho Ab S324_03V; S324V
# B19: GpH7-B3 variant V266_19Q/GpL16-k0 (antibody, human IgG1, kappa)
# heavy: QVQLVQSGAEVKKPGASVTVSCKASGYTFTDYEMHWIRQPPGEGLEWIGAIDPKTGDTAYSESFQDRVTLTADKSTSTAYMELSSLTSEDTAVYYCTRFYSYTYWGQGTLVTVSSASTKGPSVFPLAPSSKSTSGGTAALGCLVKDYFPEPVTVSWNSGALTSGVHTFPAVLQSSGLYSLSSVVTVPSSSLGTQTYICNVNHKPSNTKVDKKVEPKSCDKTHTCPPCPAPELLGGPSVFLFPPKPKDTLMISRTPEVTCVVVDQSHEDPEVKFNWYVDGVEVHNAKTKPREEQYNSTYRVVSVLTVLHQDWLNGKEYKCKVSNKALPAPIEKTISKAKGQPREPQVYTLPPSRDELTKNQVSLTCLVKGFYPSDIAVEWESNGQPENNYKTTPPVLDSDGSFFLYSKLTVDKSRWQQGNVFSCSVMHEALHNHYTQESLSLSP
# light: B1 light
# notes: mutation in both H chains; also called Ho Ab V266_19Q; V266Q
# B20: GpH7-B3 variant S298_01G/GpL16-k0 (antibody, human IgG1, kappa)
# heavy: not shown
# light: B1 light
# notes: mutation in both H chains; also called Ho Ab S298_01G; S298G
# B21: GpH7-B3 variant S239_09D/GpL16-k0 (antibody, human IgG1, kappa)
# heavy: not shown
# light: B1 light
# notes: mutation in both H chains; also called Ho Ab S239_09D; S239D
# B22: GpH7-B3 variant T335_05P/GpL16-k0 (antibody, human IgG1, kappa)
# heavy: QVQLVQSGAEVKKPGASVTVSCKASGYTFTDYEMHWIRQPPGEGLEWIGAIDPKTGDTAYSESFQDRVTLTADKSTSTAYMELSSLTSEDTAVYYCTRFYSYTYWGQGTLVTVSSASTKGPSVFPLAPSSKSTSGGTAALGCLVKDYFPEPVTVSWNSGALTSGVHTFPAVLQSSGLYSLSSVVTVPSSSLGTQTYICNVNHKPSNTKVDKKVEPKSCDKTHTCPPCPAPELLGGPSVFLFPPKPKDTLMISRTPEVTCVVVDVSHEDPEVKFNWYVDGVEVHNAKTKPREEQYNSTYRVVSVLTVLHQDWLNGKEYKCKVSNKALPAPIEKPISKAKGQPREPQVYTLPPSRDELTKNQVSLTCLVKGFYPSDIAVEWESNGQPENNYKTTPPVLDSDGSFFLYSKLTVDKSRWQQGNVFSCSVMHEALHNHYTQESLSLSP
# light: B1 light
# notes: mutation in both H chains; also called Ho Ab T335_05P; T335P
# B23: GpH7-B3 variant S298_12R/GpL16-k0 (antibody, human IgG1, kappa)
# heavy: not shown
# light: B1 light
# notes: mutation in both H chains; also called Ho Ab S298_12R; S298R
# B24: GpH7-B3 variant S337_03V/GpL16-k0 (antibody, human IgG1, kappa)
# heavy: not shown
# light: B1 light
# notes: mutation in both H chains; also called Ho Ab S337_03V; S337V
# B25: GpH7-B3 variant S324_02A/GpL16-k0 (antibody, human IgG1, kappa)
# heavy: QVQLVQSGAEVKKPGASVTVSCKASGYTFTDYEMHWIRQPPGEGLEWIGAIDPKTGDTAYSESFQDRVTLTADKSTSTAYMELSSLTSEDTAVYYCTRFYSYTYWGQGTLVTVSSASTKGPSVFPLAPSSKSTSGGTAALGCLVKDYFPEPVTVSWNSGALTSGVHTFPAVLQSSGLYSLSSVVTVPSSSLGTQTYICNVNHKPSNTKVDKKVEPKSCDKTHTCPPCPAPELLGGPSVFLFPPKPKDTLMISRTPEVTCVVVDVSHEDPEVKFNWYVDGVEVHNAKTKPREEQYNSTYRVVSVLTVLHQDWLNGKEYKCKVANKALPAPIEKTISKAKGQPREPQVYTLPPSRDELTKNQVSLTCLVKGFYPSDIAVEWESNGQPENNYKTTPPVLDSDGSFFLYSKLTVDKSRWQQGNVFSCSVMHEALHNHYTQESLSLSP
# light: B1 light
# notes: mutation in both H chains; also called Ho Ab S324_02A; S324A
# B26: GpH7-B3 variant S324_20W/GpL16-k0 (antibody, human IgG1, kappa)
# heavy: not shown
# light: B1 light
# notes: mutation in both H chains; also called Ho Ab S324_20W; S324W
# B27: GpH7-B3 variant T335_08L/GpL16-k0 (antibody, human IgG1, kappa)
# heavy: not shown
# light: B1 light
# notes: mutation in both H chains; also called Ho Ab T335_08L; T335L
# B28: GpH7-B3 variant T335_15Y/GpL16-k0 (antibody, human IgG1, kappa)
# heavy: not shown
# light: B1 light
# notes: mutation in both H chains; also called Ho Ab T335_15Y; T335Y
# B29: GpH7-B3 variant T335_10E/GpL16-k0 (antibody, human IgG1, kappa)
# heavy: not shown
# light: B1 light
# notes: mutation in both H chains; also called Ho Ab T335_10E; T335E
# B30: GpH7-B3 variant S298_04F/GpL16-k0 (antibody, human IgG1, kappa)
# heavy: not shown
# light: B1 light
# notes: mutation in both H chains; also called Ho Ab S298_04F; S298F
# B31: GpH7-B3 variant S324_16H/GpL16-k0 (antibody, human IgG1, kappa)
# heavy: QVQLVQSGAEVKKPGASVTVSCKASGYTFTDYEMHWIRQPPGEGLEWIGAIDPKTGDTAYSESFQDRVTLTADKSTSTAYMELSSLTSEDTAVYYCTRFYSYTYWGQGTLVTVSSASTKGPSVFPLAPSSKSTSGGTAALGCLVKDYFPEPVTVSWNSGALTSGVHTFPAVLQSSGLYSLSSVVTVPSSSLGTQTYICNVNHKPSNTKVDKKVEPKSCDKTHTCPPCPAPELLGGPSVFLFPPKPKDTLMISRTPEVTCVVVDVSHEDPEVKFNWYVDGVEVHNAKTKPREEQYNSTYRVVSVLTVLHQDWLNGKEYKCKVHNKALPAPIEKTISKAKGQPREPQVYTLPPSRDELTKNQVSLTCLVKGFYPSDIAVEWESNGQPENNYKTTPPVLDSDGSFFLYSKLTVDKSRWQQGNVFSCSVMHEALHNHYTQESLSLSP
# light: B1 light
# notes: mutation in both H chains; also called Ho Ab S324_16H; S324H
# Molecular target: T1, FcγRIa extracellular domain with C-terminal His tag (human, UniProt P12314 16-292)
# T1 construct: extracellular domain; also called FcgRI; CD64; not shown: His tag at the C terminus
# T1 sequence (P12314 16-292): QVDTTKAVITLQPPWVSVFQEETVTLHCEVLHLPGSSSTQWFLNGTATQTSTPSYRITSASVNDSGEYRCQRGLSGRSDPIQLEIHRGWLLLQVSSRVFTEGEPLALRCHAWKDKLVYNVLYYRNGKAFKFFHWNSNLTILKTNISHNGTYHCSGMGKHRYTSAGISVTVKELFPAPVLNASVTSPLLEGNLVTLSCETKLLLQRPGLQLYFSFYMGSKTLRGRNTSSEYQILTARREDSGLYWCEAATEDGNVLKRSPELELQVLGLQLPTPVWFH
# Test: SPR Biacore, relative FcγRIa binding vs GpH7-B3/GpL16-k0
row,Binder,Ho/Con_1a
1,B1,93.4 % of HoCon Ab (=100)
2,B2,105 % of HoCon Ab (=100)
3,B3,105 % of HoCon Ab (=100)
4,B4,111 % of HoCon Ab (=100)
5,B5,97.9 % of HoCon Ab (=100)
6,B6,103 % of HoCon Ab (=100)
7,B7,106 % of HoCon Ab (=100)
8,B8,106 % of HoCon Ab (=100)
9,B9,103 % of HoCon Ab (=100)
10,B10,104 % of HoCon Ab (=100)
11,B11,102 % of HoCon Ab (=100)
12,B12,106 % of HoCon Ab (=100)
13,B13,104 % of HoCon Ab (=100)
14,B14,104 % of HoCon Ab (=100)
15,B15,111 % of HoCon Ab (=100)
16,B16,106 % of HoCon Ab (=100)

row,Binder,Ho/Con_1a
1,B17,108 % of HoCon Ab (=100)
2,B18,103 % of HoCon Ab (=100)
3,B19,91.2 % of HoCon Ab (=100)
4,B20,103 % of HoCon Ab (=100)
5,B21,101 % of HoCon Ab (=100)
6,B22,106 % of HoCon Ab (=100)
7,B23,94.5 % of HoCon Ab (=100)
8,B24,105 % of HoCon Ab (=100)
9,B25,103 % of HoCon Ab (=100)
10,B26,112 % of HoCon Ab (=100)
11,B27,105 % of HoCon Ab (=100)
12,B28,106 % of HoCon Ab (=100)
13,B29,108 % of HoCon Ab (=100)
14,B30,107 % of HoCon Ab (=100)
15,B31,111 % of HoCon Ab (=100)
